From a protein production outcome set (Wang et al. 2014)

Assay: label from the status in PepcDB records

## MGRDASSYFHLVFFLALTLLAGCSTTGSAPETREAGAGPEELMAAVRANEDRAVLELLSMGVRPDAQARAEQTPLMVAATNGNRRIVRLLLAAGAEVNARSADGNTAVIQAAENGHLAVVRALLAAGANVNVSQGGESLLMKVVASGDLLTAEMLLAAGADVHYRRADGTTALDLARASNNQDLEMLLVQAGAAR
  protein production: failed

## MLDHFGSDPVFSPEQVLENRGRVAIFIDGSNLFYAALQLGIEIDYSKLLYRLTGGSRLLRSFFYTGVDRANEKQQGFLLWMRRNGYRVIAKDLVQLPDGSKKANLDVEIAVDMMALVGSYDTAVLVSGDGDLAYAVDAVSYRGARVEVVSLRSMTSDSLINVADRYIDLEQIQTDIQKLHRGQFSEPRLMEDRGGGTIELPSHE
  protein production: failed

## MHYTETGSPRLAILIDADNTFRFINVIDELLEEISKYGDVSIRRIYGDWTETKMQRWKEILPKYAIQPIQQYANTKGKNSTDSALIIDAMDLLYTAPLDGFCIVSSDSDFTRLATRLRESGKQVYGFGEQKTPDSLIAACNKFIYIEILSKEKLSDPPEPTPISTSETSASVESKPPAAPSTPLSPAALAPGIRKSSRELAMDTRLISLIRSAISALSDDDGYAHIGEIKKYMIKNFPAFDSRNYGYSKFSELIKATGLFDIDKDKQRIKDKRKK
  protein production: failed

## MNDIVEFLKVFIPLFIVIDPFGSLVLFTSMTYNFNEGEKMRATKDAVVYGGIILVMFALAGQFIIYFFGISIEALEMAGGVILLLMAVEMIMEGNRPKTSGSEVTTDLDIGIVPFATPLLAGPGAISLVIILMKGPLIDKIFTFVSIGIIFLMVYIFFKEASIVSKFIGNKAMKAVSRIFGLLLAGFAIQYFIDAVTALFLVH
  protein production: failed

## MKIAIASGKGGTGKTTVAVNLALALEEVQLFDCDVEEPNCNLFLGFEMEPVEEVVFLVPEINPDKCTLCRGCSDFCRYNALAAIPNRILSFPSLCHGCGGCSFVCPAGAIEEKPETIGIIQKALSDSPLTFFCGTLKIGKATATPVIKSLQNHIDESRPAIIDSPPGTACPVLAVMGFADYCVLVTESTPFGFHDFCLALEAARALNVPVGVVLNRDGLGDSRVEDFCRAEGIPILLRIPNDRTIARLYSEGIPFVKEMPEWKKQFKDMFETIKTGLYESKGVQLEHHHHHH
  protein production: failed

## MSNNNKYFTITKKQYKKMRRNKIELLFNVKVLKKKNGRQKFKILHEVENKPKIPIKIIEDQPESPKPLKPPKPPKPPKGPDNPEEPDSPEEPKETDQPGGPDNPNAGNKKMPTPEEYVTRKEFNEFKDSNNQRLTKIENKVDKLEVKVDKLAEIVQTQGEEIKELKVEQKAQSETLQLILKTLQKMNDRLDRMETRLDKIDSPKLEHHHHHH
  protein production: not failed

## LESSMNKFHALFDSVMDACVIIDKRGVIKECNAALQTLLGVEDKTALVGTSLTQFHLADTFMGSAVQIAQSVEDVLKQGLLKFEADITDSQGQSIPAEVTLKSIELNTERFVLATYHNLAERRLVDRLIRHERNLLKNVLGMSPIGVWVCVNGTCRYVNAQMTLM
  protein production: failed

## MNNTLLYVITVLIWGSTWIAINYQLGEVAAEVSIVYRFGLAALCMFAYCRFKKLPLKFSAKQHLQLSAFGLTLFGFNYYLLYNAQAHINSALTSIAFSTLMMINILNARVWFKTRISSRVYYGGALGLMGIVTLFWPQISNVHFGDSTLLGLGLCLIGVVFASTGNMISIKNQHDNMPVLPATAWGMMYGSLFMFVVALVQGQTFNFSYTFEYISSLLYLSIFGSVIAFGCYLTLLARIGAHKASYATIMFPAVAVVISSFFEGFIWDSYTFIGLSLMLAGNLVVLAKPGMLKRFNSTSLKQVSCSDAK
  protein production: failed

## MTFFIFLLACSAAAATGIIFKPGAWYESLQKPAFTPPNWAFPVAWTTIYLLLAWAGYRLTLLPGSQTVLALWAAQIALNTLWTPVFFGANRIAAAMVILALLWIVVATMIVMALQLDIITGLILFPYLVWLSVAAALNFSILRHNR
  protein production: failed

## MQFIWAALGLVCVALALIGVALPLLPTVPFLLLAAFFFARSSERLHTWLVTHRLFGPMILDWQQSGAIRPGAKKAATLSIAAVFGLSLVFAVPSHVLLIQAVVLSGVLIFIWTRPNG
  protein production: failed

## MESIEQQLTELRTTLRHHEYLYHVMDAPEIPDAEYDRLMRELRELETKHPELITPDSPTQRVGAAPLAAFSQIRHEVPMLSLDNVFDEESFLAFNKRVQDRLKNNEKVTWCCELKLDGLAVSILYENGVLVSAATRGDGTTGEDITSNVRTIRAIPLKLHGENIPARLEVRGEVFLPQAGFEKINEDARRTGGKVFANPRNAAAGSLRQLDPRITAKRPLTFFCYGVGVLEGGELPDTHLGRLLQFKKWGLPVSDRVTLCESAEEVLAFYHKVEEDRPTLGFDIDGVVIKVNSLAQQEQLGFVARAPRWAVAFKFPAQEQMTFVRDVEFQVGRTGAITPVARLEPVHVAGVLVSNATLHNADEIERLGLRIGDKVVIRRAGDVIPQVVNVVLSERPEDTREVVFPTHCPVCGSDVERVEGEAVARCTGGLICGAQRKESLKHFVSRRAMDVDGMGDKIIDQLVEKEYVHTPADLFKLTAGKLTGLERMGPKSAQNVVNALEKAKETTFARFLYALGIREVGEATAAGLAAYFGTLEALEAASIEELQKVPDVGIVVASHVHNFFAEESNRNVISELLAEGVHWPAPIVINAEEIDSPFAGKTVVLTGSLSQMSRDDAKARLVELGAKVAGSVSKKTDLVIAGEAAGSKLAKAQELGIEVIDEAEMLRLLGS
  protein production: not failed

## MPEEVSNEIEAPSLHTPEEVLLHYWGYPSFRPVQLPIIESVLAGKDTLGLLPTGGGKSITFQVPGLLLPGLTLVVTPLIALMRDQIMGLRQKGIKATAVHAGMTREQIITTLDNCIYGRYKFLYVSPERLGSELFLSRLHALRVSLLVVDECHCISQWGYDFRPAYLSIADIREALPDVPVLALTATATRPVIDDIQRILRFPEPNVLRKSFFRPNLSYSIRRTADKETMLLHILSRVDGSAVVYCRNRDKARDLARFLGENGFSADFYHAGLNHVTREIRQKSWMEGETRIIVCTNAFGMGIDKPDVRLVLHMEMPSSPEEYFQEAGRAGRDGERAYAVLLAGEDDIFNLKRRVSNEFPPREYIATVYNRICNYLQIGEGEGFERSFDFDIDAFCRNFRMFPTQVLAAIRILDVAGIWEYREEKTRSRLTIQVQRDELYRMRSEQASDSVLTALMRTYDGLFADYVSIVESELAEKTGLSVDQVYQQLLLLNKAGIVNYIPQKNLPRIYFLTRREDAELLQIPRAAYEDRRDRLKARIDQSLRYIEEENTCRSRMLLAYFGEEQSHNCKLCDVCLRRKDGELHHHEVDDLLHFLEQRLTEETPYVLIADICRELHHHPDVVLKAIRFVMKESWQYSTDGDTVFLTHKLPGGLNL
  protein production: failed

## MQYINIANRGVKSLSPYQAGKPIEELERELGISNIVKLASNENPFGFPESAKKAIFEQLDKLTRYPDANGFELKQTIAKKFGVQPNQITLGNGSNDLLELFAHTFATEGDEIMYSQYAFIVYPLVTKAINAIVKEIPAKNWGHDLQGFLTALSDKTKLIYIANPNNPTGNFLTSQEIEDFLAEVPENVIVVLDEAYTEFTRSEERVDSFSLLKKYSNLIISRSLSKAYGLAGLRIGYAVSNPEIADLLNRVRQPFNCNSLALTAAVAVMNDDKFVEKVAENNRIEMRRYEDFCQKNQLDYIPSKGNFITIDFKQPAAPIYDALLREGVIVRPIAGYGMPNHLRISIGLPEENDKFFTALSKVLKFA
  protein production: not failed

## MKYCTLDDLILSFGQDEIYRLIATDQEAEKALDDAQAEIDMYLSDRYALPVKSVPKSLNRIACDIAHYYLYNSVDEDSTVYLRYKHRIKQLSDVAAGKLSLGLYDKSDDATTDNQVVFIKSSKKVFAR
  protein production: not failed

## MFVNQHGYSFGLSCALDGLSKREKDAQRQNKLLELGLLTNRNSTFFEEATQTLARNLGLPICLVGLMVEDEINIVSAVGIYRLGVGNPNLVSRQISRNDAYCTLVVDSAMPLMITDALAEPFFAEGELYQRYGIRSYLGTPLLTRDGVCLGTLAALDFSPHDFREPDVALMNMTARWCMGEIEH
  protein production: failed

## SIPMRLLSDCPQFSRKTVKLLTNGGDMLELCYELRLPFVHWISVNQKSSFKRYEISHVYRRAIGHSPPNPCLQADFDIVGGTLSLTEAEVLKVIVDITTHIFHRGSCDIHLNHGDLLDAIWSWAGIKAEHRRKVAELLSMMGSLRPQSSERKLKWVFIRRQLLQELKLPEAVVNRLQTVASRFCGDADQALPRLRGALRADRPTRKALDELSNLLTYLRVWRIEEHVHIDVLMPPTESYHRNLFFQVFLTKENSSGTSNDGVLLAVGGRYDWLVQEVCDREHKMNLPGAVGVSLALETIFQHLPMDLRPIRNEVSTSVLVCSRGGGGLLVQRMELVAELWEKSIKAEFVPTPDPSLTEQYEYANEHEIKCLVIITESGVAQNQIEFVKVRHLELKKEKVVGR
  protein production: not failed

## MIVFYDSWCPMCTAVAERTKKLDKKGKVKFVSFRDEDVVEKYELSQELQSKMEQRLYIFKNNKWYDGIHSIHVLAKSIPSYWFAVPFIKLSIVLGFGNKVYDYIANNRKLVPVGHCRGGVCEIPTKK
  protein production: failed

## MQVSREFKGIFLASISATFWGISGAVAQTLFDTTDINSIWLTGIRMLGAGIALLLVSLLTHVDLWSIWRQPRDLLQIVAYTLLGLMPVQFTYFLAVEASNAATGTILQFMGPVFIALWMLVAHRQLPTRAEGLAIICALLGSFLLVTHGNPQTLVISVWALIWGLLSGVSSATNTLLPTKLLTKYDPMTVNTWSMLLGGILFNIVQPVWSIHIPLTMLNISKLTFVVLFGTLLAFLFFLQSLQYIRPTVVSLLDAFEPLSATIIAVVLLGVSFGWLDILGSVLIISTVFILAIGQGPNDRTAENFKQP
  protein production: failed

## MSLKIGIIGGGSVGLLCAYYLSLYHDVTVVTRRQEQAAAIQSEGIRLYKGGEEFRADCSADTSINSDFDLLVVTVKQHQLQSVFSSLERIGKTNILFLQNGMGHIHDLKDWHVGHSIYVGIVEHGAVRKSDTAVDHTGLGAIKWSAFDDAEPDRLNILFQHNHSDFPIYYETDWYRLLTGKLIVNACINPLTALLQVKNGELLTTPAYLAFMKLVFQEACRILKLENEEKAWERVQAVCGQTKENRSSMLVDVIGGRQTEADAIIGYLLKEASLQGLDAVHLEFLYGSIKALERNTNKVEGHHHHHH
  protein production: not failed

## MQTVKYLARNSGFLFLNGIATNILSFFAMLYIARHLGPEDYGIFSFAFAFIYFFSFIPDMGVHQILVREAAKEPGKAGKLIGNGTIIKFFLSFVAIILAFILINLIGFPSSTKNALYIASLGLLISGTGAYGIIYEAKLRMEYSLLFNLVSRVCLLLFVFLAVAINSTLNTFIFASVSATFVHNLLMVLFSKKLVKVSFNPDITLIKQLLREAIPIAIASVFTVVYFKIDVLMLSFLRGDAEVGFYSAAYRLTDALVFLPSAFTTSTFPLMSRYFKESFNSFSFAYARTFKYLFASGLLIAVLVTFASEKIILIFYGPEYQNSVIALQILIWATAITFISVLISSTCVSSGNQQIISKTAILAALLNVSLNLILIPSTGYIGAAVATVLSVLGSMVFGLIWVHKNLLHENPLKGTISPIIGAGVVSLFIILLEPYADIMFLSAVSVPLFAAVLYTTGWIDSDDKTIFLKLFPASRLNSKKF
  protein production: failed

## MSSFRSAWAGAPAGIAVARTGQSVPLLNAAAALAVAMAVGGWLSGARHASAIDATQIESWRAMVAQAMEPQALRQLRQLARGGSTPARTALGEALLDSRDASLRHEGVRWLEAAAQPADGAPGDARAQLALGKALLLGTGGVARDYPRALHLLRQAADRGDAAAAYYLGLMYRSGYGTAANTALAAHWFDGAARHGIPAAMFMLANAYRDGDGVPRDEARALALYEQAAEHELPEAVQALAMAYQNGELGLARDDAAFRKQWLETAHALKHPALTP
  protein production: failed
